Assay results: patent publication US20030148956A1 (PROCTER AND GAMBLE, published 2003)
Ends that are not written are not given here.

molecular target: corticotropin releasing factor 1 receptor; assay: cell-based or functional assay

| Binder | CRF1R EC50 [nM] | CRF1R Emax % [%] |
| --- | --- | --- |
| ZGPPISIDLPFQLLRKAIEIEKQEKEKQQATTNARLLDRV (C-terminal amide) [SEQ ID NO 363] | 1000 | 20 |
| ZGPPISIDLPFQLLRKLIEIEKQEKEKQQAANNALLLATI (C-terminal amide) [SEQ ID NO 357] | 331 | 100 |
| ZGPPISIDLPFQLLRKAIEIEKQEKEKQQAANNALLLDTI (C-terminal amide) [SEQ ID NO 365] | 1000 | 21 |
| ZGPPISIDVPFQLLRKVIEIEKQEKEKQQAANNARLLARI (C-terminal amide) [SEQ ID NO 383] | 1000 | 55 |
| ZGPPISIDLPFQLLRLLIEIEKQEKEKQQAANNALLLATI (C-terminal amide) [SEQ ID NO 360] | 157 | 100 |
| ZGPPISIDVPYQLLRKVIEIEKQEKEKQQAANNARLLDTI (C-terminal amide) [SEQ ID NO 374] | 1000 | 11 |
| ZGPPISIDVPLQLLRKVIEIEKQEKEKQQAANNARLLARI (C-terminal amide) [SEQ ID NO 381] | 1000 | 27 |
| ZGPPISIDVPYQLLRKVIEIEKQEKEKQQAANNARLLARI (C-terminal amide) [SEQ ID NO 375] | 1000 | 22 |
| ZGPPISIDLPFQLLRVLIEIEKQEKEKQQAANNALLLATI (C-terminal amide) [SEQ ID NO 361] | 149 | 100 |
| ZGPPISIDLPFQLLRKIIEIEKQEKEKQQAANNALLLATI (C-terminal amide) [SEQ ID NO 362] | 386 | 100 |
| ZGPPISIDVPFQLLRKVIEIEKQEKEKQQAANNARLLDTI (C-terminal amide) [SEQ ID NO 382] | 1000 | 8 |
| ZGPPISIDLPFQLLRKAIEIEKQEKEKQQAANNALLLATI (C-terminal amide) [SEQ ID NO 364] | 1000 | 27 |
| ZGPPISIDVPLQLLRKVIEIEKQEKEKQQAANNARLLDTI (C-terminal amide) [SEQ ID NO 380] | 1000 | 16 |
| ZGPPISIDLPFQLLREVIEIEKQEKEKQQAANNALLLATI (C-terminal amide) [SEQ ID NO 359] | 230 | 100 |
| ZGPPISIDLPFQLLRILIEIEKQEKEKQQAANNALLLAT (C-terminal amide) [SEQ ID NO 358] | 99 | 100 |
| IVLSLDVPIGLLQILLEKAAAEAEAAAKAAQEQILAHV-NH2 [SEQ ID NO 366] | 1000 | 9 |

| Binder | CRF1R EC50 [nM] | CRF1R Emax % [%] |
| --- | --- | --- |
| IVLSLDVPIGLLQILLEQARHAAAHAAAHAQAHILAHV-NH2 [SEQ ID NO 367] | 1000 | 6 |
| IVLSLDVSIGLLQILLEQARARAAREQATTNARILARV-NH2 [SEQ ID NO 370] | 1000 | 33 |
| DNPSLSIDVPLFLLRTLLELEKTQSQRERAEQNARIFARV-NH2 [SEQ ID NO 385] | 1000 | 46 |
| ZGPPISIDVPYWLLRKVIEIEKQEKEKQQAANNARLLDTI (C-terminal amide) [SEQ ID NO 372] | 1000 | 13 |
| ZGPPISIDVPIYLLRKVIEIEKQEKEKQQAANNARLLARI (C-terminal amide) [SEQ ID NO 379] | 1000 | 8 |
| ZGPPISIDVPYWLLRKVIEIEKQEKEKQQAANNARLLARI (C-terminal amide) [SEQ ID NO 373] | 1000 | 9 |
| ZGPPISIDVPYHLLRKVIEIEKQEKEKQQAANNARLLDTI (C-terminal amide) [SEQ ID NO 376] | 1000 | 8 |
| ZGPPISIDVPYHLLRKVIEIEKQEKEKQQAANNARLLARI (C-terminal amide) [SEQ ID NO 377] | 1000 | 25 |
| ZGPPISIDVPYYLLRKVIEIEKQEKEKQQAANNARLLARI (C-terminal amide) [SEQ ID NO 378] | 1000 | 36 |
| IVLSLDVPIHLLQILLEQARARAAREQATTNARILARV-NH2 [SEQ ID NO 371] | 1000 | 22 |
| IVLSLDVPIGLLQILLEQARHAHAHAHAHAQAHILAHV-NH2 [SEQ ID NO 369] | 1000 | 4 |
| DNPSLSIDVPFFLLRTLLELEKTQSQRERAEQNARIFARV-NH2 [SEQ ID NO 386] | 1000 | 78.2 |
| IVLSLDVPIGLLQILLEQARARAAREQATTNARILARVM-NH2 [SEQ ID NO 368] | 1000 |  |
| DNPSLSIDVPLLLLRTLLELEKTQSQRERAEQNARIFARV-NH2 [SEQ ID NO 384] | 1000 | 70.3 |
| DNPSLSIDVPLYLLRTLLELEKTQSQRERAEQNARIFARV-NH2 [SEQ ID NO 387] | 1000 | 50.1 |

molecular target: T1, corticotropin releasing factor 2 receptor; assay: cell-based or functional assay
T1 sequence (Q13324 whole entry, species assumed, looked up): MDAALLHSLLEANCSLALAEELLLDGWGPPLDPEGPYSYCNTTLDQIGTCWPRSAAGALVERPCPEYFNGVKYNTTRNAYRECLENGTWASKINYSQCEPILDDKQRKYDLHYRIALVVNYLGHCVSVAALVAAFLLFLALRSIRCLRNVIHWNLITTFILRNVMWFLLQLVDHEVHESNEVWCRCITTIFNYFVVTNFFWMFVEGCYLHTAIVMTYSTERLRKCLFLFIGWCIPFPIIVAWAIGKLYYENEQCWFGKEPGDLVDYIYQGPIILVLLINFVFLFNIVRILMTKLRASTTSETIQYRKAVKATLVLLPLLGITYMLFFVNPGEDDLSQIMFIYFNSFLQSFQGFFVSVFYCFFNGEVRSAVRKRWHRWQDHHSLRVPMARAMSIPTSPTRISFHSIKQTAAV

| Binder | CRF2R EC50 [nM] | CRF2R Emax % [%] |
| --- | --- | --- |
| ZGPPISIDLPFQLLRKAIEIEKQEKEKQQATTNARLLDRV (C-terminal amide) [SEQ ID NO 363] | 25.1 | 100 |
| ZGPPISIDLPFQLLRKLIEIEKQEKEKQQAANNALLLATI (C-terminal amide) [SEQ ID NO 357] | 6.44 | 100 |
| ZGPPISIDLPFQLLRKAIEIEKQEKEKQQAANNALLLDTI (C-terminal amide) [SEQ ID NO 365] | 23.4 | 94 |
| ZGPPISIDVPFQLLRKVIEIEKQEKEKQQAANNARLLARI (C-terminal amide) [SEQ ID NO 383] | 9.31 | 96 |
| ZGPPISIDLPFQLLRLLIEIEKQEKEKQQAANNALLLATI (C-terminal amide) [SEQ ID NO 360] | 6.12 | 93 |
| ZGPPISIDVPYQLLRKVIEIEKQEKEKQQAANNARLLDTI (C-terminal amide) [SEQ ID NO 374] | 15.8 | 91 |
| ZGPPISIDVPLQLLRKVIEIEKQEKEKQQAANNARLLARI (C-terminal amide) [SEQ ID NO 381] | 12.7 | 99 |
| ZGPPISIDVPYQLLRKVIEIEKQEKEKQQAANNARLLARI (C-terminal amide) [SEQ ID NO 375] | 11.5 | 100 |
| ZGPPISIDLPFQLLRVLIEIEKQEKEKQQAANNALLLATI (C-terminal amide) [SEQ ID NO 361] | 6.37 | 99 |
| ZGPPISIDLPFQLLRKIIEIEKQEKEKQQAANNALLLATI (C-terminal amide) [SEQ ID NO 362] | 4.39 | 100 |
| ZGPPISIDVPFQLLRKVIEIEKQEKEKQQAANNARLLDTI (C-terminal amide) [SEQ ID NO 382] | 39.5 | 100 |
| ZGPPISIDLPFQLLRKAIEIEKQEKEKQQAANNALLLATI (C-terminal amide) [SEQ ID NO 364] | 13.2 | 100 |
| ZGPPISIDVPLQLLRKVIEIEKQEKEKQQAANNARLLDTI (C-terminal amide) [SEQ ID NO 380] | 19 | 100 |
| ZGPPISIDLPFQLLREVIEIEKQEKEKQQAANNALLLATI (C-terminal amide) [SEQ ID NO 359] | 23.1 | 100 |
| ZGPPISIDLPFQLLRILIEIEKQEKEKQQAANNALLLAT (C-terminal amide) [SEQ ID NO 358] | 5.56 | 100 |
| IVLSLDVPIGLLQILLEKAAAEAEAAAKAAQEQILAHV-NH2 [SEQ ID NO 366] | 100 | 46 |

| Binder | CRF2R EC50 [nM] | CRF2R Emax % [%] |
| --- | --- | --- |
| IVLSLDVPIGLLQILLEQARHAAAHAAAHAQAHILAHV-NH2 [SEQ ID NO 367] | 100 | 18 |
| IVLSLDVSIGLLQILLEQARARAAREQATTNARILARV-NH2 [SEQ ID NO 370] | 51 | 75 |
| DNPSLSIDVPLFLLRTLLELEKTQSQRERAEQNARIFARV-NH2 [SEQ ID NO 385] | 10.2 | 100 |
| ZGPPISIDVPYWLLRKVIEIEKQEKEKQQAANNARLLDTI (C-terminal amide) [SEQ ID NO 372] | 14.2 | 100 |
| ZGPPISIDVPIYLLRKVIEIEKQEKEKQQAANNARLLARI (C-terminal amide) [SEQ ID NO 379] | 70.5 | 94 |
| ZGPPISIDVPYWLLRKVIEIEKQEKEKQQAANNARLLARI (C-terminal amide) [SEQ ID NO 373] | 11.5 | 100 |
| ZGPPISIDVPYHLLRKVIEIEKQEKEKQQAANNARLLDTI (C-terminal amide) [SEQ ID NO 376] | 52.5 | 100 |
| ZGPPISIDVPYHLLRKVIEIEKQEKEKQQAANNARLLARI (C-terminal amide) [SEQ ID NO 377] | 19.2 | 83 |
| ZGPPISIDVPYYLLRKVIEIEKQEKEKQQAANNARLLARI (C-terminal amide) [SEQ ID NO 378] | 14.9 | 100 |
| IVLSLDVPIHLLQILLEQARARAAREQATTNARILARV-NH2 [SEQ ID NO 371] | 6.62 | 97 |
| IVLSLDVPIGLLQILLEQARHAHAHAHAHAQAHILAHV-NH2 [SEQ ID NO 369] | 100 | 18 |
| DNPSLSIDVPFFLLRTLLELEKTQSQRERAEQNARIFARV-NH2 [SEQ ID NO 386] | 8.7 | 96 |
| IVLSLDVPIGLLQILLEQARARAAREQATTNARILARVM-NH2 [SEQ ID NO 368] | 50.4 |  |
| DNPSLSIDVPLLLLRTLLELEKTQSQRERAEQNARIFARV-NH2 [SEQ ID NO 384] | 7.1 | 97.3 |
| DNPSLSIDVPLYLLRTLLELEKTQSQRERAEQNARIFARV-NH2 [SEQ ID NO 387] | 17.9 | 100 |
